Data published in the DeepSol protein solubility set.

Assay: soluble on expression in E. coli; label from the status in PepcDB or PDB records

Sequence	soluble on expression in E. coli
SAVPAILQVITESTGLGFAAVARVTEDSWTACAVLDNLGFGLKPGGELELISTICHEIRASHKPVVIDHVAEDELFCAHHTPRRYNFQSYISIPIFLTDGSFFGTICALDPKPAKLTGTPIEAMMVSFARLLALQIEAEENMQRVQ	soluble
SDLDYGGVPLWINRFLGEPSVLTLKDRIDPGWYRAVNTQSCPLECDCPIQWPTAIYCDHRGLNQLPSGLPFRLQYLFLQGNNITSLGSRAFDNTTYLRWLILDHNELLSEQLDNVLFSSLTRLVNLFINHNNLTKVPAGLPSGLKQLRLAYNHIEKISEGDFQNLDSLTLILLQGNRLKTIEEGDFKGLGALNLLDLSHNFLDTFPKHLPPSVQQLYLSNNSLTGLSENSLHAFSGLRYLRLGHNKLRNERLDPGAFNLTSLVELDLSYNRLTEIPSVPITLQYLYLEVNHIQEFNVSSFCRTVGPTSYSRMKILRLDGNKLEYHKLPPDWVFCLRVLHNIYI	soluble
SEKANALFETIFMENIMASPIAQTYMGIKQDYDKWDEIGDEADALELARTQKQLAEINQLDASKLDPQTRLSLALLTQNLNNDIKDYQWRYHTYPVNQMRGGHSMIASFLINQHQITDVSDAKAYISRLNGVPKRLTQLQKALEVRAEKGIIAPKFVFGYVISDSQNILKGAPFDKNEDSALLADFRKKVKALSIPETEKAPLIAEAEKALTSQVAPAYKALISYIKTLEAKADTRDGVWKLPDGDAFYNNALARTTTTDMTADEIHQLGLAEVERIHNEMRAIMKKVHFNGTLQAFFAFMRNNPQFYYPNTPEGKAAYLADATQLIDNMHSRLDEVFKVKPKAAMIVKQVESFREKSAGKAFYEQPAPDGSRPGSYYANLYDMKAMPKYQMEALAYHEGIPGHHMQIAISQELKDIPKFRKFGGYTAYIEGWGLYSESFPKEMGLYADPYSDFGRLAMELWRACRLVVDTGIHAKKWTREQGIAYYVDNTPNAKSDAVKMVERHIVMPSQATAYKVGMIKLLELRHKAEKQLGDKFDIRDFHTLILANGALPLDVLEEHVNQWIASVNK	not soluble
SEMLASLKEHPNELLDLLNSIITDFELAVDDLIENFMQSDFDALKLTMHTTKGMALNLGLKILASQALELETQLKMNQVPAIEQLQMLINRLQVNIHQGHRLRDELVKAQQNSEQVF	not soluble
SEPGETIVEAMQREVKEEAGLLCEPVTLLSVEERGASWIRFVFLARPTGGVLKTSKDADSESLQAGWYPRVSLPTPLRAHDVLHLVELGAKFCQQAMHPLILPQELPCSVVCQRLVTTFTTVQSVWVLVGTVGTPHLPITACGFTPMEQRGGIKVAILRLLQECLTLHSLAVETKGLLGLQHLGRDHVDGVCLNVLVTVAFRNPGIQDEPPKIRGENYFWWKVLEEDLQKLLLYRLQESSVIPLSR	soluble
SEQHAQGADAVVDLNNELKTRREKLANLREQGIAFPNDFRRDHTSDQLHAEFDGKENEELEALNIEVAVAGRMMTRRIMGKASFVTLQDVGGRIQLYVARDDLPEGVYNEQFKKWDLGDILGAKGKLFKTKTGELSIHCTELRLLTKALRPLPDKFHGLQDQEARYRQRYLDLISNDESRNTFKVRSQILSGIRQFMVNRGFMEVETPMMQVIPGGAAARPFITHHNALDLDMYLRIAPELYLKRLVVGGFERVFEINRNFRNEGISVRHNPEFTMMELYMAYADYKDLIELTESLFRTLAQDILGKTEVTYGDVTLDFGKPFEKLTMREAIKKYRPETDMADLDNFDSAKAIAESIGIHVEKSWGLGRIVTEIFEEVAEAHLIQPTFITEYPAEVSPLARRNDVNPEITDRFEFFIGGREIGNGFSELNDAEDQAQRFLDQVAAKDAGDDEAMFYDEDYVTALEHGLPPTAGLGIGIDRMVMLFTNSHTIRDVILFPAMRPVK	soluble
SEQKYEEDIQKLQQEIEMLEAEQEETLRSIFVQHGDRLQQGVKSACEERGGGGAQQHTLSKLITEVRELEKDLRRQTEINGITLNECFVKTLHKSERKLIQQLRLAGHCGLLLFQVEFAVTEIQEDNVLHRRVTELNIVVDGVEFKDFSAFVSRVEDTKDLLLFFRTLRTFSERCEDRRQTFQHFQEKYPDVVNLPEGCRSEIMIIRSPQLPGISMTLFWKIHVSKEGVVKPLLDLLLKMPDQALELDTKKVMEKASDYFQSLLQLLGVEASIEGLIRTVCS	soluble
SEVLRPQLIRIDGRNYRKNPVQEQTYQHEEDEEDFYQGSMECADEPCDAYEVEQTPQGFRSTLRAPSLLYKHIVGKRGDTRKKIEMETKTSISIPKPGQDGEIVITGQHRNGVISARTRIDVLLDTFRRKQPFTHFLAFFLNEVEVQEGFLRFQEEVLAKCSMDHGVDSSIFQNPKKLHLTIGMLVLLSEEEIQQTCEMLQQCKEEFINDISGGKPLEVEMAGIEYMNDDPGMVDVLYAKVHMKDGSNRLQELVDRVLERFQASGLIVKEWNSVKLHATVMNTLFRKDPNAEGRYNLYTAEGKYIFKERESFDGRNILKLFENFYFGSLKLNSIHISQRFTVDSFGNYASCGQIDFS	soluble
SFWGWLNAVFNKVDHDRIRDVGPDRAASEWLLRCGAMVRYHGQQRWQKDYNHLPTGPLDKYKIQAIDATDSCIMSIGFDHMEGLQYVEKIRLCKCHYIEDGCLERLSQLENLQKSMLEMEIISCGNVTDKGIIALHHFRNLKYLFLSDLPGVKEKEKIVQAFKTSLPSLELKLDLK	soluble
SGDRSMVEVLADHPGELVRTDSPNFLSSVLPTHWRSNKTLPIAFKVVALGDVPDGTLVTVMAGNDENYSAELRNATAAMKNQVARFNDLRFVGRSGRGKSFTLTITVFTNPPQVATYHRAIKITVDGPREPRRHRQKLDD	soluble
SGIMHQINNVYSLTPLSLPMELTPSCNEFYLKTWSEWEKNGTPGEQRNIAFNRLKICLQNQEAELNLSELDLKTLPDLPPQITTLEIRKNLLTHLPDLPPMLKVIHAQFNQLESLPALPETLEELNAGDNKIKELPFLPENLTHLRVHNNRLHILPLLPPELKLLVVSGNRLDSIPPFPDKLEGLALANNFIEQLPELPFSMNRAVLMNNNLTTLPESVLRLAQNAFVNVAGNPLSGHT	not soluble
SGLIGEGLKDVKSAAGDTRVDNFADRLAALSQAAQPARAVAAPASAPLMNQPLAMHQSGWTEGIVDRVMYLSSQNLKTADIKLEPAELGRLDIRINMAPEQQTQVTFMSAHMGVRDALESQMSKLRESFVQQGLGNVDVNVSDQS	not soluble
SGNLDDNKFTWVIKNVPTLNSDMLFSNYFVIGGCSWRVVAHSKENNFKESLSLTLIVAEDSAQKMGCGWSRYAKIIFTLVNQISEILSQRIETMFDQKSSVFSSETMFSIGKFDEHFAGFIVNGEIKIVVEFLEIIDKLVLSKESNPPFKKTKLNNDGEVSKDLIREVPVIMESIVVNGFHVLPSQVEFVKRIFEKHPDVAKEFRPTNRIVKTAYMNVLLSLIETLRQSPREISKNDLDGACGLLRSMKEAGFKLDWLEKKLNEVLEKKEKEESYETRMREIEEEMKDLKAKALDVGAPLRLDDVV	not soluble
SIPAGITAAYIHKGHDTTHGGGEMVLEVPHDKTIPVLRFLRDHSSCLYDCFIDCTAADFPQKPQRFRVVYNLLSLKYSSRIRVQTHVDEVTPIESATCLFKGANWPEREVWDLFGVFFYNHPDLRRILTDYGFEGHPLRKDFPLSGYVEVRYDDTEKRVVIEPVEITQEYRAFDYTSPWEVFPEGGNFEEAEKLPERV	soluble
SKAQEKGEAISLAFKGVKAEFLKRPEADVHFVCNDGHVIDEMLDHTIATGERVNRDVKIIALCPSLHGQEPMAEFALTLSIKKAAQHTKKAA	not soluble
SKFLDVECLSELQRKLNDLELTDYRVRCQLEAYSCKPAGFDKKLSKSLEQKLVEQLEASPRVLEGSPVGSLEDQSARKTLINLICTLNAAHQDYDFSSLQLSRLKRVQDVRSLQQHVDSLFELFYRQLGLEFRQFLWENIGQIIRPEECEVYSYLPDYESDPYSASGALWSFCYFFYHKNMKKILFFSCTLSTRLAEDSESTESVDEEDFGKESSGLETPFAMFETVI	soluble
SKHYPEAGIQYSSSTTGDGRPLDIEFSGSCSLEKFYDNPKSNDGNSYRLQSWLYASRLLQYSDALEHLLSTGQGVVLERSIYSDFVFLEAMYNQGFIRKQCVDHYNEIKRLTLPEYLPPHAVIYIDVPVSEIQSRIQKKGDPHEMKVTSAYLQDIEDAYKKTFLPKMSEICEVLVYSSWEAEDSTKVVEDIEYLNYNKGPWLKQDDRTFHNLRMLVQDKREVLNYTTVPVYLPEITIGAHQGSRIYDSFRELPGRKYAPGYNADVGDKWIWLK	soluble
SKKGGKRFEIACYKNKVMSWRSGAEKDLDEVLQTNTVFVNVSKGQVAKKEDLSNAFGTDDLTEICKQILSKGELQVSDKERQSQLEQMFRDIATIVAEKCVNPETKRPYTVNLIERAMKDIHFSVKANKSTKQQALEVIKQLKESIQIQRAHMRLRFVLPAKDGKRLKEKLKPLIKAVENEDFDDQLEMVCLIDPGCFRDIDELIRCETKGKGTLEVLSLKDVEEGDEKLE	soluble
SKKLLFQFDTDATPSVFDVVVGYDGGADHITGYGNVTPDNVGAYVDGTIYTRGGKEKQSTAIFVGGGDMAAGERVFEAVKKRFFGPFRVSCMLDSNGSNTTAAAGVALVVKAAGGSVKGKKAVVLAGTGPVGMRSAALLAGEGAEVVLCGRKLDKAQAAADSVNKRFKVNVTAAETADDASRAEAVKGAHFVFTAGAIGLELLPQAAWQNESSIEIVADYNAQPPLGIGGIDATDKGKEYGGKRAFGALGIGGLKLKLHRACIAKLFESSEGVFDAEEIYKLAKEMA	soluble
SKLTRKMVLTRAKASELHSVRKLNCWGSRLTDISICQEMPSLEVITLSVNSISTLEPVSRCQRLSELYLRRNRIPSLAELFYLKGLPRLRVLWLAENPCCGTSPHRYRMTVLRTLPRLQKLDNQAVTEEELSRALSEGEEITAAPEREGTGHGGPKLCCTLSSLSSAAETGRDPLDSEEEATSGAQDERGLKPPSRGQFPSLSARDASSSHRGRNVLTAILLLLRELDAEGLEAVQQTVGSRLQALRGEEVQEHAE	soluble
SKLVWSPETASKAYIDTVKSCENLETPDAAELIAAMAAGWNVKLIVETWSEGDAIASSIGLNVASKHANAKHICIVQNSRSESAYLQAIQESSSPLNFPETIVAEEPGKAMKKLQGVDFLVVDWRNKEFAAAALKNAAFGNRGAVVVCRNGYSSLRRVLRDRKVVRTVTLPVTGGIEIAHVAARNSGKSGNNKRRWITHVDQRSGEEHVFSI	soluble
SKMARASASASLIDGKIYVFGGCPEDADSSNWAEVFDPVYQTWGIFNTPKMAHSINQSVVIEEKKVYAVDEEDQSFSFLPSEGRIWKSGKKDSKVGSRHDWCVIGKLLYCRATRGRILWCQPDELDWKEVKGLEQLQLYLSGTRYIFRRTSDKRPSKTNVKYDIRKISSNSAGNIVIFGNAHIGDPECVELWSAEISMERREGGEIWGKIEWSNVVFKLDPLSNSYSVDVLFSASVHL	soluble
SKRVNSCVKDEEHVLEELETEGERQLKSLLQHQLDTSVSIEECVSKKKSFAPGTMYKPFGKEAAGTMTLSQFQTLHEKDQETASLRELGLNETEILIWKSHVSGEKRTKLRATPEAIQKRLEDIKERISERQRILCLPQRFSKSKQLTRREMEIEKSLFQGTDRHSFLKALYYQDEPPKKNKGDPMNNLEHFYRETIMKKRLEEFQLLRGESFACHSLVSAASVSGSGTAEKPSLLQDKGKQAAQGKGPRLHVAKLIDFPTEQYWTGPKTLKQPIEFIPEDEIQRNRLSEEEIRNIPMFSSYNPGEPNKVLYLKNLSPRVKERDLISLFARFQEKKGPPIQFRMMTGRMRGQAFLTFPNKDIAWQALHQINGYKLYGKILVIEFAKSKKQQSAVQRSSLITSAPDGRTEINGS	soluble
